Results: article PMC3427372, “Proteomic Analysis Reveals New Cardiac-Specific Dystrophin-Associated Proteins” (PLoS ONE, 2012)
Blank lines part the entries; values can stand above or below the binder they belong to.

Target: T1, Dystrophin (mouse (endogenous in cardiac and …, UniProt P11531 1-3678))
T1 construct: dystrophin, mouse, the large (427 kDa) full-length form of muscle cells; also called full-length dystrophin; full length dystrophin; source: endogenous, mouse cardiac ventricle and skeletal muscle (quadriceps) lysate
Experiment: co-IP; DYS-IP (MANDYS1 cross-linked to protein G magnetic beads) from wild type mouse cardiac muscle lysate, 3 hr at 4°C, Western blot; controls IgG-IP and mdx
Conditions: partners not purified

T1 sequence (P11531 whole entry): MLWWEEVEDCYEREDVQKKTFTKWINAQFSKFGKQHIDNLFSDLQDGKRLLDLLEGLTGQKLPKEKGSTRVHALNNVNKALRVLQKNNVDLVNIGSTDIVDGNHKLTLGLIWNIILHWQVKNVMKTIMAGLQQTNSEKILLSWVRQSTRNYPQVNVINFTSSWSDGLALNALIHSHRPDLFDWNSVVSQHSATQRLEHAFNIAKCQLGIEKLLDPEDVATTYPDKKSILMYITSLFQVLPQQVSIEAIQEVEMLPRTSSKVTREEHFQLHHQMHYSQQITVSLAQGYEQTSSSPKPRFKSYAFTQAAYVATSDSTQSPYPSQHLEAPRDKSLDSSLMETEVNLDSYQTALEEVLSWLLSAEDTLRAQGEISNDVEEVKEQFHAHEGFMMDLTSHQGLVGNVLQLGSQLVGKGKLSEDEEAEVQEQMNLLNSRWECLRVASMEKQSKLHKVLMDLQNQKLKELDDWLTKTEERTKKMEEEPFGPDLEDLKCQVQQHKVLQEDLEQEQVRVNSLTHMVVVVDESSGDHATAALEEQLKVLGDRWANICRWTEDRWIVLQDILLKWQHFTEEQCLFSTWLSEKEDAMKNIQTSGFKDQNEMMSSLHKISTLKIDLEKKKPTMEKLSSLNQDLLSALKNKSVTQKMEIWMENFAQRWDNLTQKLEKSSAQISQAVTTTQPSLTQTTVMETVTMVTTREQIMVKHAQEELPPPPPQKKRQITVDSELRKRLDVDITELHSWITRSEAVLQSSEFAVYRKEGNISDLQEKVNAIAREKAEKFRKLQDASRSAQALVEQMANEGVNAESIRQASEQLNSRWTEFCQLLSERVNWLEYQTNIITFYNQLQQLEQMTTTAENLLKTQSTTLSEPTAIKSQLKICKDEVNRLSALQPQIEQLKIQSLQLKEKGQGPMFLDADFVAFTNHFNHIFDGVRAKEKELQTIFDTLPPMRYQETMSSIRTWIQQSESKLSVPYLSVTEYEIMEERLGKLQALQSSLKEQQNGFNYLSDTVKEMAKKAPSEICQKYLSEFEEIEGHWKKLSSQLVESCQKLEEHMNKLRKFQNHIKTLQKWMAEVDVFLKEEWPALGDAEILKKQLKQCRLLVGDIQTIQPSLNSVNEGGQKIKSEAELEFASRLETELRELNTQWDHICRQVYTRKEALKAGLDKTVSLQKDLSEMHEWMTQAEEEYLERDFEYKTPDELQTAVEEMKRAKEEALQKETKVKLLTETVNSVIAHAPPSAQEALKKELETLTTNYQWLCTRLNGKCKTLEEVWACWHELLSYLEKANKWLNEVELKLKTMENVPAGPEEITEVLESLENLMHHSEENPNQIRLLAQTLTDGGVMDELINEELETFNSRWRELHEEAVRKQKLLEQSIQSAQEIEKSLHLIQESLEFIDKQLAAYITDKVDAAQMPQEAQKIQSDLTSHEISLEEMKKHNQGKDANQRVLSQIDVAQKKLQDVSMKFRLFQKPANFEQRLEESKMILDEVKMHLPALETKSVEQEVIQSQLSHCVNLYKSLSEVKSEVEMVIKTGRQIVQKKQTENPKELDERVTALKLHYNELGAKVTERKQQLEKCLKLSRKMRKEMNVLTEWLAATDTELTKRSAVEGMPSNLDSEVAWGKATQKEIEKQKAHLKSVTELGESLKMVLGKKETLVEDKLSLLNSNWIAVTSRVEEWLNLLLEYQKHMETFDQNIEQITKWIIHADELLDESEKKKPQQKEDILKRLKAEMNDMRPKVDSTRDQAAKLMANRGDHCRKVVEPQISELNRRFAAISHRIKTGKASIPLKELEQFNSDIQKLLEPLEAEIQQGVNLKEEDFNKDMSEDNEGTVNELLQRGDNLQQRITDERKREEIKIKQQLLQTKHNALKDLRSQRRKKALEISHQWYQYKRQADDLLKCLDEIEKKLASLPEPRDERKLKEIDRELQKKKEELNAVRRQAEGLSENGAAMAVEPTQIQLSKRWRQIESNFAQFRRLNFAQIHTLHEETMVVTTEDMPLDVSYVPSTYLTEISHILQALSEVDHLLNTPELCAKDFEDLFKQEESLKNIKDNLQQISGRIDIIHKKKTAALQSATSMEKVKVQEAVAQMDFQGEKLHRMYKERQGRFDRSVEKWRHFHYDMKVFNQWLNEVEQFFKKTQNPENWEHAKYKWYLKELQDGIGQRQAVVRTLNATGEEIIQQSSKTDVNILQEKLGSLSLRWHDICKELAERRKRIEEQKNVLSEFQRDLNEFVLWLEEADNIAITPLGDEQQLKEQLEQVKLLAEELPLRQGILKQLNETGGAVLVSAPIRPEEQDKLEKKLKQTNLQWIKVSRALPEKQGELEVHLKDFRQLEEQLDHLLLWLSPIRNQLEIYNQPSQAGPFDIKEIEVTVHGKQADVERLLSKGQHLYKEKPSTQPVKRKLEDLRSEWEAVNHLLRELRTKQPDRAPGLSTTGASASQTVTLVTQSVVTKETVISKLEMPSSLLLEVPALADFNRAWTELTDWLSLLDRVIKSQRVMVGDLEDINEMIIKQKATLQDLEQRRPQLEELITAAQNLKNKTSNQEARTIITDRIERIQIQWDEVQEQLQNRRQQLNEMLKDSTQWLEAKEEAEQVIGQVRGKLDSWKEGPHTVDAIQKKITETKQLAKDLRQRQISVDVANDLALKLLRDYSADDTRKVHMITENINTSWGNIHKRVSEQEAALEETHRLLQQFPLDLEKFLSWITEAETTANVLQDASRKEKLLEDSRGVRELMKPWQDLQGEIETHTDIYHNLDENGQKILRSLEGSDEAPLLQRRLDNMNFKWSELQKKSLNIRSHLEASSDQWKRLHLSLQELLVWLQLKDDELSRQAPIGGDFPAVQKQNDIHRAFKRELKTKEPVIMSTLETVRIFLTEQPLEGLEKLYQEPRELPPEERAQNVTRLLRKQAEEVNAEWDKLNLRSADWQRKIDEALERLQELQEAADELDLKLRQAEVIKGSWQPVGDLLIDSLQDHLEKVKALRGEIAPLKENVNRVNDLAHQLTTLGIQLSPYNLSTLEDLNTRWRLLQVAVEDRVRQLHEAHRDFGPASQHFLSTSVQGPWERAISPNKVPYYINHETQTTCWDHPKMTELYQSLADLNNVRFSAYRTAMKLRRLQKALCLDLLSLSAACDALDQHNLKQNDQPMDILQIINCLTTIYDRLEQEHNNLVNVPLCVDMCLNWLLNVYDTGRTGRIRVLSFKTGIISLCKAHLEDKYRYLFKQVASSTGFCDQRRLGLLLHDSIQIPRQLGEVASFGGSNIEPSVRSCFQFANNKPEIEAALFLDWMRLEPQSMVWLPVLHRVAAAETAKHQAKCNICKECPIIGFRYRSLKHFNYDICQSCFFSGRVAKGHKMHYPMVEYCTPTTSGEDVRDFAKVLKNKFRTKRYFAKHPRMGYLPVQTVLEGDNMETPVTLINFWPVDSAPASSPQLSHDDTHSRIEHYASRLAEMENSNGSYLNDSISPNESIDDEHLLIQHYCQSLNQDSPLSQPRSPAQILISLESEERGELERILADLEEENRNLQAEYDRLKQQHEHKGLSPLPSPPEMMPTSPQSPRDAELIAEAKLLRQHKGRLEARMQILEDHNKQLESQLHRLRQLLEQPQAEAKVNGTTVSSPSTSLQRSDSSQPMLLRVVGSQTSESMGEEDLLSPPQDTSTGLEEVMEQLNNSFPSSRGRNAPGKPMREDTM

fold less associated with dystrophin in cardiac than in skeletal muscle DYS-IPs: 4 fold
B1: β1-Syntrophin (natural protein, UniProt Q99L88 1-537, looked up)
chain: MAVAAAAVAAPAGGGGARAQRSGLLEVLVRDRWHKVLVNLSEDALVLSCEEGAAAYNGIGAATNGSFCRGSGTGHPVPGVAQAPDSPAGVRTAFTDLPEQVPESISNQKRGVKVLKQELGGLGISIKGGKENKMPILISKIFKGLAADQTQALYVGDAILSVNGADLRDATHDEAVQALKRAGKEVLLEVKYMREATPYVKKGSPVSEIGWETPPPESPRLGGGSAEPLSSQSFSFHRDRKSIPLKMCYVTRNMTLADPENRQLEIHSPDAKHTVILRSKDSATAQAWFSAIHSNAGDLLTRVVADIREQLGKTGIAGSREIRHLGWLAEKVPGESEKQWKPALVVLTEKDLLIYDSMPRRKEAWFSPVHSYPLLATRLVHSGPGKGSPQAGMDLSFATRTGTKQGIETHLFRAEISRDLSHWTRSIVQGCHNSAELTAEITTACTYRNQECRLTIHYDNGFSISTEPQDGAFPKTIIQSPYEKLKMSSDDGIRMLYLDFGGKEGEIQLDLHSCPKPIVFIIHSFLSAKITRLGLVA
notes: β1-syntrophin, mouse; source: endogenous, mouse cardiac ventricle and skeletal muscle (quadriceps) lysate

fold less associated with dystrophin in cardiac than in skeletal muscle DYS-IPs: ~5 fold
B2: α1-dystrobrevin (natural protein, UniProt Q9D2N4 1-746, looked up)
chain: MIEDSGKRGNTMAERRQLFAEMRAQDLDRIRLSTYRTACKLRFVQKKCNLHLVDIWNVIEALRENALNNLDPNIELNVARLEAVLSTIFYQLNKRMPTTHQIHVEQSISLLLNFLLAAFDPEGHGKISVFAVKMALATLCGGKIMDKLRYIFSMISDSSGVMVYGRYDQFLREVLKLPTAVFEGPSFGYTEQSARSCFSQQKKVTLNGFLDTLMSDPPPQCLVWLPLLHRLANVENVFHPVECSYCHSESMMGFRYRCQQCHNYQLCQDCFWRGHAGGSHSNQHQMKEYTSWKSPAKKLTNALSKSLSCASSREPLHPMFPDQPEKPLNLAHIVPPRPVTSMNDTLFSHSVPSSGSPFITRSSPPKDSEVEQNKMLARAAPAFLKGRGIQYSLNVADRLADEHVLIGLYVNMLRNDPPCMLESSNRLDEEHRLIARYAARLAAESSSSQPTQQRSAPDISFTIDANKQQRQLIAELENKNREILQEIQRLRVEHEQASQPTPEKAQQNPTLLAELRLLRQRKDELEQRMSALQESRRELMVQLEGLMKLLKEEELKQGTQGASSPRSSPSHTISRPIPMPIRSASACPTPTHTPQDSLTGVGGDVQEAFAQSSRRNLRSDLLVAADSITNTMSSLVKELNSEVASETESTVDSEFSRPQFEDLAPSPTSEKAFLAQIHSRKPGYIHGGAASTTHGDMVPEDGDPYTQPEDGNYENESVRQLENELQLEEYLKQKLQDEAYQVSLQG
notes: α-dystrobrevin splice variant α1, mouse; told apart on blots by molecular weight with a pan α-dystrobrevin antibody; also called DTNA1; source: endogenous, mouse cardiac ventricle and skeletal muscle (quadriceps) lysate
